# Data taken from the DeepSol protein solubility set.
# Assay: soluble on expression in E. coli; label from the status in PepcDB or PDB records
row,Sequence,soluble on expression in E. coli
1,MGYASKLALKICLASLCLFSALGAEHLEQKRNYIYKGEEAYNNKEYERAASFYKSAIKNGEPLAYVLLGIMYENGRGVPKDEKKAAEYFQKAVDNDIPRGYNNLGVMYKEGRGVPKDEKKAVEYFRIATEKGYTNAYINLGIMYMEGRGVPSNYVKATECFRKAMHKGNVEAYILLGDIYYSGNDQLGIEPDKDKAIVYYKMAADMSSSRAYEGLAESYQYGLGVEKDKKKAEEYMQKACDFDIDKNCKKKNTSSRLEHHHHHH,soluble
2,MHAGEAVQQLKKAFETVASFDFRDALSKASTPVTVVATNGPFGLAGLTCSAVCSVCDRPPTVLLCINRKSYAAGIIKSNGVLSVNWLAAGQAVISQTFAGVGSVPMEERFADKGWQTIATGAPYRMDAAVSFDCTIANIVDVGSHSVIFAEVVARNHAEECTPLIYHRRQYATTRSLAEHHHHHH,soluble
3,MHESIQMIIDRIDHLVLTVSDISTTIRFYEEVLGFSAVTFKQNRKALIFGAQKINLHQQEMEFEPKASRPTPGSADLCFITSTPINDVVSEILQAGISIVEGPVERTGATGEIMSIYIRDPDGNLIEISQYVLEHHHHHH,not soluble
4,MHEWALADAIVRTVLDYAQREGASRVKAVRVVLGELQDVAEDIVKFAMEQLFAGTIAEGAEIEFVEEEAVFKCRNCNYEWKLKEVKDKFDERIKEDIHFIPEVVHAFLACPKCGSHDFEVVKGRGVYVAGIKIEKEGGS,soluble
5,MHGEETPRTDLTLFSEKMQELKSRIASVIVGQERTVDLVLTAILANGHVLIEGVPGVAKTLLARLTARLIDADFSRVQFTPDLMPSDVLGTTVFNMKTNEFDFHRGPVFANIILVDEINRAPAKTQSALFEVMEERQASIDGTTYRMGELYTILATQNPVEQEGTYKLPEAQLDRFLMKITMDYPSLDEEINILERHHTNAALVKLEEIQPVITREELLSLRRLTEKVFVDRTLLQYIALIAQQTRTSKAVYLGASPRASVAMLQASKAYALLQGRDFVTPEDIKFVAPYVLQHRLILTAEAEMEGYSPVKVTQRLIDKVEVPKLEHHHHHH,soluble
6,MHHHHHHAMDTYKLFIVIGDRVVVVTTEAVDAATAEKVFKQYANDNGVDGEWTYDDAAKTFTVTE,soluble
7,MHHHHHHGKPIPNPLLGLDSTENLYFQGIDPFTMNNRNHDVLSRMISEKAALHGLLNCLIKEFAIPEGYLRYEWPDEMKGIPPGAYFDGADWKGIPMMIGLPDQLQLFVMVDRRDTFGSQHYLSDVYLRQAQGDWQCPDFEPLVARLLAACEHIAGRKNPELYEQILQSQRLVSAIVSHNGRQRADAPLQHYLQSEQGLWFGHPSHPAPKARLWPAHLGQEQWAPEFQARAALHQFEVPVDGLHIGANGLTPQQVLDGFADQQPASPGHAIICMHPVQAQLFMQDARVQQLLRDNVIRDLGQSGRVASPTASIRTWFIDDHDYFIKGSLNVRITNCVRKNAWYELESTVLIDRLFRQLLDQHADTLGGLVAAAEPGVVSWSPAAAGELDSHWFREQTGGILRENFCRRTGAERSIMAGTLFARGVDLQPMIQTFLRTHYGEALDDNALLYWFDDYQTRLLRPVLSLFFNHGVVMEPHLQNSVLVHQQGRPQQVLLRDFEGVKLTDDLGIRYIDDDIHPRVRQSLLYSREQGWNRIMYCLFINHLSETILALSQGRPQLAPLMWRRVQQQLRAIQGELKQPSPELDALIAGHPVACKTNLKVRLAAEADRQASYVRLPSPWGHAVQHGSEVQHDERRHGDVRHEEARHGEVQHG,soluble
8,MHHHHHHGMASMTARPLSELVERGWAAALEPVADQVAHMGQFLRAEIAAGRRYLPAGSNVLRAFTFPFDNVRVLIVGQDPYPTPGHAVGLSFSVAPDVRPWPRSLANIFDEYTADLGYPLPSNGDLTPWAQRGVLLLNRVLTVRPSNPASHRGKGWEAVTECAIRALAARAAPLVAILWGRDASTLKPMLAAGNCVAIESPHPSPLSASRGFFGSRPFSRANELLVGMGAEPIDWRLP,soluble
9,MHHHHHHLTKVFGSRNDRTLRRMRKVVNIINAMEPEMEKLSDEELKGKTAEFRARLEKGEVLENLIPEAFAVVREASKRVFGMRHFDVQLLGGMVLNERCIAEMRTGEGKTLTATLPAYLNALTGKGVHVVTVNDYLAQRDAENNRPLFEFLGLTVGINLPGMPAPAKREAYAADITYGTNNEYGFDYLRDNMAFSPEERVQRKLHYALVDEVDSILIDEARTPLIISGANQTLASITFQNYFRLYEKLAGMTGTADTEAFEFSSIYKLDTVVVPTNRPMIRKDLPDLVYMTEAEKIQAIIEDIKERTAKGQPVLVGTISIEKSELVSNELTKAGIKHNVLNAKFHANEAAIVAQAGYPAAVTIATNMAGRGTDIVLGGSWQAEVAALENPTAEQIEKIKADWQVRHDAVLEAGGLHIIGTERHESRRIDNQLRGRSGRQGDAGSSRFYLSMEDALMRIFASDRVSGMMRK,soluble
10,MHHHHHHRMKQLEDKVEELLSKNYHLENEVARLRSPPLLVGVVSDILEDGRVVVKSSTGPKFVVNTSQYINEEELKPGARVALNQQTLAIVNVLPTSKDPMVYGFEVEE,soluble
11,MHHHHHHSSGRENLYFQGSSESVRVVVRCRPMNGKEKAASYDKVVDVDVKLGQVSVKNPKGTAHEMPKTFTFDAVYDWNAKQFELYDETFRPLVDSVLQGFNGTIFAYGQTGTGKTYTMEGIRGDPEKRGVIPNSFDHIFTHISRSQNQQYLVRASYLEIYQEEIRDLLSKDQTKRLELKERPDTGVYVKDLSSFVTKSVKEIEHVMNVGNQNRSVGATNMNEHSSRSHAIFVITIECSEVGLDGENHIRVGKLNLVDLAGSERQAKTGAQGERLKEATKINLSLSALGNVISALVDGKSTHIPYRDSKLTRLLQDSLGGNAKTVMVANVGPASYNVEETLTTLRYANRAKNIKNKPRVNEDPKDALLREFQ,soluble
12,MHHHHHHSSGVDLGTENLYFQSMAARVLIIGSGGREHTLAWKLAQSHHVKQVLVAPGNAGTACSEKISNTAISISDHTALAQFCKEKKIEFVVVGPEAPLAAGIVGNLRSAGVQCFGPTAEAAQLESSKRFAKEFMDRHGIPTAQWKAFTKPEEACSFILSADFPALVVKASGLAAGKGVIVAKSKEEACKAVQEIMQEKAFGAAGETIVIEELLDGEEVSCLCFTDGKTVAPMPPAQDHKRLLEGDGGPNTGGMGAYCPAPQVSNDLLLKIKDTVLQRTVDGMQQEGTPYTGILYAGIMLTKNGPKVLEFNCRFGDPECQVILPLLKSDLYEVIQSTLDGLLCTSLPVWLENHTALTVVMASKGYPGDYTKGVEITGFPEAQALGLEVFHAGTALKNGKVVTHGGRVLAVTAIRENLISALEEAKKGLAAIKFEGAIYRKDIGFRAIAFLQ,soluble
13,MHHHHHHSSGVDLGTENLYFQSMADSEALPSLAGDPVAVEALLRAVFGVVVDEAIQKGTSVSQKVCEWKEPEELKQLLDLELRSQGESQKQILERCRAVIRYSVKTGHPRFFNQLFSGLDPHALAGRIITESLNTSQYTYEIAPVFVLMEEEVLRKLRALVGWSSGDGIFCPGGSISNMYAVNLARYQRYPDCKQRGLRTLPPLALFTSKECHYSIQKGAAFLGLGTDSVRVVKADERGKMVPEDLERQIGMAEAEGAVPFLVSATSGTTVLGAFDPLEAIADVCQRHGLWLHVDAAWGGSVLLSQTHRHLLDGIQRADSVAWNPHKLLAAGLQCSALLLQDTSNLLKRCHGSQASYLFQQDKFYDVALDTGDKVVQCGRRVDCLKLWLMWKAQGDQGLERRIDQAFVLARYLVEEMKKREGFELVMEPEFVNVCFWFVPPSLRGKQESPDYHERLSKVAPVLKERMVKEGSMMIGYQPHGTRGNFFRVVVANSALTCADMDFLLNELERLGQDL,soluble
14,MHHHHHHSSGVDLGTENLYFQSMDVGIVALEIYFPSQYVDQAELEKYDGVDAGKYTIGLGQAKMGFCTDREDINSLCMTVVQNLMERNNLSYDCIGRLEVGTETIIDKSKSVKTNLMQLFEESGNTDIEGIDTTNACYGGTAAVFNAVNWIESSSWDGRYALVVAGDIAVYATGNARPTGGVGAVALLIGPNAPLIFERGLRGTHMQHAYDFYKPDMLSEYPIVDGKLSIQCYLSALDRCYSVYCKKIHAQWQKEGNDKDFTLNDFGFMIFHSPYCKLVQKSLARMLLNDFLNDQNRDKNSIYSGLEAFGDVKLEDTYFDRDVEKAFMKASSELFSQKTKASLLVSNQNGNMYTSSVYGSLASVLAQYSPQQLAGKRIGVFSYGSGLAATLYSLKVTQDATPGSALDKITASLCDLKSRLDSRTGVAPDVFAENMKLREDTHHLVNYIPQGSIDSLFEGTWYLVRVDEKHRRTYARRP,soluble
15,MHHHHHHSSGVDLGTENLYFQSMEKTELIQKAKLAEQAERYDDMATCMKAVTEQGAELSNEERNLLSVAYKNVVGGRRSAWRVISSIEQKTDTSDKKLQLIKDYREKVESELRSICTTVLELLDKYLIANATNPESKVFYLKMKGDYFRYLAEVACGDDRKQTIDNSQGAYQEAFDISKKEMQPTHPIRLGLALNFSVFYYEILNNPELACTLAKTAFDEAIAELDTLNEDSYKDSTLIMQLLRDNLTLWTSDSAG,soluble
16,MHHHHHHSSGVDLGTENLYFQSMGNKYIQQTKPLTLERTINLYPLTNYTFGTKEPLYEKDSSVAARFQRMREEFDKIGMRRTVEGVLIVHEHRLPHVLLLQLGTTFFKLPGGELNPGEDEVEGLKRLMTEILGRQDGVLQDWVIDDCIGNWWRPNFEPPQYPYIPAHITKPKEHKKLFLVQLQEKALFAVPKNYKLVAAPLFELYDNAPGYGPIISSLPQLLSRFNFIYN,soluble
17,MHHHHHHSSGVDLGTENLYFQSMWSVRPSDMAKKTFNPIRAIVDNMKVKPNPNKTMISLSIGDPTVFGNLPTDPEVTQAMKDALDSGKYNGYAPSIGFLSSREEIASYYHCPEAPLEAKDVILTSGCSQAIDLCLAVLANPGQNILVPRPGFSLYKTLAESMGIEVKLYNLLPEKSWEIDLKQLEYLIDEKTACLIVNNPSNPCGSVFSKRHLQKILAVAARQCVPILADEIYGDMVFSDCKYEPLATLSTDVPILSCGGLAKRWLVPGWRLGWILIHDRRDIFGNEIRDGLVKLSQRILGPCTIVQGALKSILCRTPGEFYHNTLSFLKSNADLCYGALAAIPGLRPVRPSGAMYLMVGIEMEHFPEFENDVEFTERLVAEQSVHCLPATCFEYPNFIRVVITVPEVMMLEACSRIQEFCEQHYHC,soluble
18,MHIDLRQLRHFIALHEHRSFVAAALAVNLSQSAFSRSIQALEHSAGCRLVDRAAKDLRPTKQGLIVLEHARRLVSGAHNLANEIALFNGLEAGELRFGAGPAPATWLVPRAVGRFNVRYPKARVSFQVEHWQALNRRLQAEEFEFFVADTRHFEADPQYRTSRLRPRRWHFCCREGHPLAARESVSAEELLSFPLATNISPPNIRKVLVDLSGRPDFRPAIECENGHSLLGVVLASDAIGISSGLGDLAPPGQGGLRPLRVRELPDDLDELHTRYGIVSRAGYSLSPLAEAMIDELKRVDDAT,not soluble
19,MHILVVGVDYKSAPIEIREKVSFQPNELAEAMVQLKEEKSILENIIVSTCNRTEIYAVVDQLHTGRYYIKKFLADWFQLSKEELSPFLTFYESDAAVEHLFRVACGLDSMVIGETQILGQVRDSFKTAQQEKTIGTIFNELFKQAVTVGKRTHAETDIGSNAVSVSYAAVELAKKIFGNLSSKHILILGAGKMGELAAENLHGQGIGKVTVINRTYLKAKELADRFSGEARSLNQLESALAEADILISSTGASEFVVSKEMMENANKLRKGRPLFMVDIAVPRDLDPALNDLEGVFLYDIDDLEGIVEANMKERRETAEKVELLIEETIVEFKQWMNTLGVVPVISALREKALAIQSETMDSIERKLPHLSTREKKLLNKHTKSIINQMLRDPILKVKELAADADSEEKLALFMQIFDIEEAAGRQMMKTVESSQKVHSFKKAESKAGFSPLVSE,not soluble
20,MHKINKWSVIYNINSTVTRALRDLMQGILQKI,soluble
